Measurements published in the DeepSol protein solubility set.

Assay: soluble on expression in E. coli; label from the status in PepcDB or PDB records

| Sequence | soluble on expression in E. coli |
| --- | --- |
| MHHHHHHSSGVDLGTENLYFQSNAMSSKIFCKSWGAEYIAADVVRFRLWATGQQKVMLRLAGKDQEMQANGDGWFTLDVAGVTPGTEYNFVLSDGMVVPDPASRAQKTDVNGPSYVVDPGSYTWRNTGWKGSRWEQAVVYEMHTGTFTPEGTFRAAIAKLPYLAELGVTVIEVMPVAQFGGERGWGYDGVLLYAPHSAYGTPDDFKAFIDAAHGYGLSVVLDIVLNHFGPEGNYLPLLAPAFFHKERMTPWGNGIAYDVDAVRRYIIEAPLYWLTEYHLDGLRFDAIDQIEDSSARHVLVEIAQRIREDITDRPIHLTTEDSRNIISLHPRDQDGNAPLFTAEWNDDFHNAVHVFATGETQAYYNDFADAPEKHLARALAEGFAYQGEISPQTGEPRGVKSTGQPPVAFVDFIQNHDQVGNRAQGDRLITLAGAERTKVLLATLLLSPHIPLLFMGEEYGESRPFLFFTDFHGDLARAVREGRAKEFADHAGENVPDPNAPETFQRSKLNWKQQHSEEGKAWLAFTRELLLLRQKHIVPLLSAARESSGTVLQTAPGFIAVSWRFPGGTLSLALNISATTVLLPDLPGKTLFAWPNESTGSLSQHSLIVRLAQGESAS | soluble |
| MDKHQQAIITVSAYITNDTGEVLLVKSYDRSDTWEMPGGQVEPGEPLDRAVHREVYEETGVDIRLIGVSGVYYNETKNIINIVFKATYVKGNVSPQPEEIQKAKFVLIDESNIDEYVTWPHLKSRVLDAMKRECSVPYETWVMNPSRLSARVGR | not soluble |
| MGSDKIHHHHHHMRNSLLVFTLDCQVKIDSKTVDCQTNIDSFLTPNSNLIIVEVEEIKRILLDQESFLNDKLRKERIITRHYNYSITYNNAYLITGPRRAGKSIFTVQLTKGKEILRVDFDDERLSGIKANELNKFLEAGYQIKKKIEVIILDEIQNVKGWELFVSRIREIYPVIVTGSNARLMSSEMATYLTGRHMDFLVFPFSFKEYLRYKDVKVEETTRGIARLKEELRNYLQQGGFPETFKFDKNEYLRNLYSDIITRDVIIRCKTRKDVKGLADFLLENIGKEVSTRRVGNAFNLSHQSVENYFYCLSNAYLFLFVKRFTGKSLERYTLPRKVYVIDTGLFNTYKRLQMGKMIENLVFLELYKRYGQEVYYYSNGNAEVDFIIKDKFAIQVTYDEGGIDDREYKGLVRFSERFKDYKLIIITWDREGKEIRNGKEITLIPLWKFLVKERFAGEMIGKES | not soluble |
| MGSDKIHHHHHHTKKEISTQPIKVGVFDGHGGAQTCIWETVAAIRLDPEMEVRTITTADIANNALDSIDAIIIPGGSGKSQYLNLGTLNQQRIKDFIAKGKGAVGICAGAYLFSNTPDYTCIQLNGQQAIDIEHDNRGHGLAKFTLCEEGKKIFPELADRDTSFVIYYEGPVFINNPVDTIQSNTLAIMESDVHEEGNAPANMTNGKPFFVANNYGKGRVFSSIAHPEGTPGMMWMIPRMVRWTLNKPFIPYQSSAVRPDLFNHESLMATDDLKQEEKAFQILLSGESEQKVAALDWLEAHHSWDAKRWVQGLLYDASPAVRIRAARYIADTHYLPFLPNLQAAYRTETDKATQEELKTQLEKLTALLP | not soluble |
| MGSDKIHHHHHHMKFIFDIDGTICFKGNAVTKGIIHALDVCQSKGHEVIFASARPIRDLLPVLPNHMHHYSMIGGNGAFIAKGKDTIEVITFDPGTVSAIHSIIKKHSLSYLIDSHWNYSYTGSENHPIYKNIDPNQLANNVHIDEIKEVVKVVLFPDHVQKEYIMNMLTELPIRIYEHDNEGIVDISPENIDKWVGLQRLGIKEREFVVFGNDSNDLSMFLHAKESICVGSHEVLLGYASTCLKIDEQSIVNKIIELSELYA | not soluble |
| MAKRVPNMELFVFCEDLEFTQNLDLGYPFMDMTTRDKEEEAYWDMLLMQSCQHGIIANSTYSWWAAYLIENPEKIIIGPKHWLFGHENILCKEWVKIESHFEVKSQKYNALEHHHHHH | soluble |
| MTTIVGVRAREVLDSRGFPTVEAEVELEGGARGRAMVPSGASTGTHEALELRDGGKRYLGKGVRRAVENVNERIAPELVGMDALDQEGVDRAMLELDGTPNKANLGANAVLAVSLAVARAAAEALGLPLYRYLGGVQGVTLPVPLMNVINGGKHADNRVDFQEFMLVPAGAGSFAEALRIGAEVFHTLKAVLKEKGYSTNVGDEGGFAPDLRSNEEAVELLLLAIERAGYTPGQEVSLALDPATSELYRDGKYHLEGEGKVLSSEEMVAFWEAWVEKYPIRSIEDGLAEDDWEGWRLLTERLGGKVQLVGDDLFVTNPERLRAGIERGVANAILVKVNQIGTLSETLEAIRLAQRSGYRAVISHRSGETEDSFIADLAVAVNAGQIKTGSLSRSDRLAKYNQLLRIEEELGRAARFLGYAAF | soluble |
| MKFIQNLTKIHQSTSHMAHAHRSDSAVDSQVASTLREDTVARFSMLMKHPRSLARPTVTWRPPSLKLVGLHSTISPQPHLVASISRRRIGPSVKARLKGFGVRQQPAYLMSVRISDSKSNNVSFEHAEQWMLQLVGPQYAECIHMITDHGQCPVFVWIVGGDFQPLPSPASMFQTFQAAA | not soluble |
| MKIEDIYQFFENPPPTYLCQEVAICYILYVLLQGESYGTELIQQLETEHPTYRLSDTVLYSAIKFLEDNRAITGYWKKLEGRGRPRRMYQVSPEWQHQAEDLARLWQNYIYVRTN | soluble |
| SAESSKLSATTVEAAPAMIKAKDVISPSEKEESDQTEITKVSVLKNLDEKEMIKEFADRLQRLEAKVDLLVTKADLLAIKADIQELLISAKGEKVPAMKTSAKASSESDDSYMDTSSEDESSSAEEPVNKPAASAAKPATKDSLFSAGFKPAAKDSLFSAGFKPDSLFSAGFEPAAKDSLFSAGFKPGSLFSAGFEPAAKDSLFSAGFKPDSLFSVGVKPAAKDSLFSVGVNGRSFSVTGFDASLPVDDIKSALSKYFSSFGEITRVFVPPSHGTGGSLGYAYIDLKEGAEKALELGRHDVGGWDLVVGKAEPIRSGSTWPFPGRCGNQGRCTFC | soluble |
| MGSDKIHHHHHHMHPKNAWYVACTADEVADKPLGRQICNEKMVFYRDQNQQVVAVEDFCPHRGAPLSLGYVENGQLVCGYHGLVMGGDGKTASMPGQRVRGFPCNKTFAAIERYGFIWVWPGEREKADPALIHHLEWAVSDEWAYGGGLFHIQCDYRLMIDNLMDLTHETYVHASSIGQKEIDEAPPVTTVEGEEVITARHMENIMPPPFWKMALRGNNLADDVPVDRWQICRFTPPSHVLIEVGVAHAGKGGYHAPHEFKASSIVVDFITPETDTSIWYFWGMARNFKPADEQLTATIREGQHKIFSEDLEMLERQQLNLLQHPHRNLLKLNIDAGGVQSRKILERLIAAEQADTADQIPVAAVK | not soluble |
| MAHHHHHHMADYNAAGADTAVVDDNVPPGITTKQDEIIQYVAKYVVASCDGARYQDKVRTRTKHNPYFDFLNAKHPYHQYYQYLLESYRHWMRNSEAVGAGTWGGGVDATQGQGQQQQWNEEDYYQYYGAYAGQASGIEFQGNAAGQLG | not soluble |
| MIIKPRIRGFICTTTHPVGCEANVKEQIAYTKAQGPIKNAPKRVLVVGASSGYGLSSRIAAAFGGGASTIGVFFEKEGTEKKPGTAGFYNAAAFEKLAREEGLYAKSLNGDAFSNEAKQKTIDLIKEDLGQVDMVVYSLASPVRKMPETGELIRSALKPIGETYTSTAVDTNKDVIIEASVEPATEEEIKDTVTVMGGEDWELWINALSDAGVLAEGCKTVAYSYIGTELTWPIYWDGALGKAKMDLDRAAKALNEKLGATGGSANVAVLKSVVTQASSAIPVMPLYIAMVFKKMREEGVHEGCMEQIYRMFSQRLYKEDGSAAEVDDMNRLRLDDWELREDIQQHCRELWPQITTENLKELTDYVEYKEEFLKLFGFGVEGVDYEADV | not soluble |
| MGSDKIHHHHHHALEENKEAKSLLEGIWLDDNTETALLRVKGDTLFYADAATAPVAFKIIGDSLITYGARTNGYKIEKQGEHIFWFHSAVGDVIRLHKSDTENDSLAFIHTREIPVYNEVIKKDSVVTYDNVRYRGYVYINPSKIKVMRPGVSEEGLGVDNVYYDNIIHICVYEGRKSLYAKDITKQMFKGVVPDDFLQWAILSDMDFMGVDSKGYHYQATVCIPDGASCYMVNITAGKDGGLAFELVR | not soluble |
| MNNAHEENISSVTGFKSTSGSPAIGSSLPGRSGEGRSSSSSSGSTALLAVVNSTLKAIFSNTLDSIFHMVCTDSDKRLSSEFHCLQSMFNLQLFVNLGCPLS | soluble |
